Earlier results as cited in publication PMC11379947 (Nature Communications, 2024).

Target: T1, ICOS (Homo sapiens, UniProt Q9Y6W8)
T1 sequence (Q9Y6W8 21-199): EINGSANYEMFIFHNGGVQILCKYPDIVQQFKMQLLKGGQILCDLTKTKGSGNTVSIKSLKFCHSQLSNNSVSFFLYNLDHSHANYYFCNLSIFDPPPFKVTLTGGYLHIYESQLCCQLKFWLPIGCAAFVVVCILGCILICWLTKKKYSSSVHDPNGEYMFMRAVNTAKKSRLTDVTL
Conditions: read-out: KD of natural ICOS ligand; cited from earlier work

B1: ICOSL: the natural ICOS ligand (protein, UniProt O75144 19-302, looked up)
ICOS ligand: DTQEKEVRAMVGSDVELSCACPEGSRFDLNDVYVYWQTSESKTVVTYHIPQNSSLENVDSRYRNRALMSPAGMLRGDFSLRLFNVTPQDEQKFHCLVLSQSLGFQEVLSVEVTLHVAANFSVPVVSAPHSPSQDELTFTCTSINGYPRPNVYWINKTDNSLLDQALQNDTVFLNMRGLYDVVSVLRIARTPSVNIGCCIENVLLQQNLTVGSQTGNDIGERDKITENPVSTGEKNAATWSILAVLCLLVVVAVAIGWVCRDRCLQHSYAGAWAVSPETELTGHV
In the case of B1, the Kd is listed as 722 nM.
